For 142 substances, amyloid nucleation score results are on record in the supplement of paper PMC12042874.

± gives the uncertainty stated by the source.

The series can be described thus: amyloid nucleation score (Sup35N fusion, yeast selection) (log enrichment); library NNK1; higher = more nucleation; inactive = no reads after selection. The essentials:
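For the nucleation score, DiMSum gave the log enrichment of output over input reads, centred on the mode score of non-aggregating sequences. Psi-negative yeast expressing Sup35N fused to peptides of 20 random codons were induced with 100 μM copper sulfate for 24 hours and grown 7 days at 30°C on medium lacking adenine and uracil. Input and output plasmid inserts were Illumina-sequenced, and sequences with under 100 input reads were excluded.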
RSEELYGQDVQEKSAGPRVS: the amyloid nucleation score was -0.089 ± 1.2.
NGHSVASSVDAVMLCRYRGK showed an amyloid nucleation score of 0.688 ± 0.69.
For the substance CALLRCMLGSYSQYVARVGE, the amyloid nucleation score is 0.504 ± 0.39.
The value for NKIQQGYMSPYCNHSVFVSF was -0.296 ± 0.65; that for RILRCNPLLCRNSACTGIGA was 0.742 ± 0.75.
In turn, YSILMVNWMFWCFVEAWNHD showed an amyloid nucleation score of 0.623 ± 0.56.
For the substance MGGRSPMELAISRVVVVVKW, the amyloid nucleation score result is “inactive”.
Consider WCTTVRIRLYGSSIWRLFGA, for which the amyloid nucleation score came out at 0.76 ± 0.45.
The value for MRLHLGWNYEMHRKNRALSI was -0.312 ± 1.4.
The figure for SIYHYCRDIRDCRMSRLELG is 0.572 ± 0.33.
For YDRAWMLRPTLLWLTQTVVR, the amyloid nucleation score was 2.21 ± 0.13.
The figure for MLNELWVQRWINLSLKYDNQ is 0.957 ± 0.45; for VGFYWNGWTTKGCWDNSWVL it is 0.382 ± 0.55; for SLSAPLNTLVFVVYIQWWEM it is 0.321 ± 0.71.
The value for QYMLFMYLGVVLKCH was 0.644 ± 0.59; that for RQMRPLGRGPS was -0.169 ± 0.84.
WCCGLCVLMQLNTVMLSKGL displayed an amyloid nucleation score of 5.33 ± 0.066.
The figure for SMGRLP is -1.05 ± 1.5; for YPYTSLRQGRDTRNREGLQC it is 0.301 ± 0.61.
The figure for NRNTRLMWNDTVWGIRAARY is -0.279 ± 0.85.
The figure for DRWDFMQLNCIHLEA is 0.885 ± 0.88.
For VRRQFVPKSYLCCESYFNEV, the amyloid nucleation score worked out at 0.32 ± 0.56.
The figure for CMIIRVGGRQGIHYSFSRMD is -0.652 ± 0.26.
NSCWVEKSNTV: the amyloid nucleation score was 0.043 ± 0.62.
The value for ATLHGFLLKICLADVLAYLV was 0.476 ± 0.42.
The value for GWWGHGFALRSFVLIAHLDV was 0.06 ± 0.72.
Substance GRGQWQPAFTKLPYLILSVV displayed an amyloid nucleation score of -0.152 ± 0.94.
On to SDLDVRAWQSLVSWIYRFPS, for which the amyloid nucleation score was determined as 0.18 ± 0.37.
The figure for VAIRTKPLYLDEYIFMDHMP is 0.459 ± 0.68; for RSHAIHVYKQLCHRVVFIWL it is 1.39 ± 0.46; for FLPLMIASVSWRL it is 0.455 ± 0.64.
The figure for AFSSLTC is -0.087 ± 1.
The figure for HILSHFVSCSRYL is -0.09 ± 1.4.
Take AWSLTSTHFG: the amyloid nucleation score was found to be 0.249 ± 0.69.
The substance MQSLRLTESSGPFSLYFAFI yielded an amyloid nucleation score of -0.227 ± 0.81.
The value for YWPGFSNRFR was 0.397 ± 0.75; that for SDGWCRLRCES was -0.429 ± 0.59; that for RLYKN was 0.161 ± 0.9.
FQATR displayed an amyloid nucleation score of -0.238 ± 0.32.
Turning to VNVFRNLFVTTDLWLSSTQN, the amyloid nucleation score was -0.437 ± 0.66.
The figure for HSHKGGWEWVSWLRREYWIA is 0.618 ± 0.47; for RMMSGRWFMMWWLLVANRGV it is “inactive”; for CDKTYPANSLCLKDFGQLEG it is -0.019 ± 0.64.
The value for YSMLQFWDRAAMSV was -0.294 ± 1.5; that for IFTLGVALFSIVM was 4.24 ± 0.067.
The entry for SHIGIFEGFYVYLPYDCITM is “inactive”.
On to SNSGIKGFGGMIPRV, for which the amyloid nucleation score was 3.92 ± 0.1.
In turn, GVVSKQSYVRITLGTGPSGE displayed an amyloid nucleation score of 0.476 ± 1.2.
The value for RMMLVV was -0.181 ± 0.37; that for DIRLIPCMSMVC was -1.38 ± 1.1.
The value for FRNCVF was -0.141 ± 0.49; that for CDVRLPF was 0.249 ± 0.61.
Turning to YNSWFI, the amyloid nucleation score is 0.586 ± 0.55.
The value for TYSRARAQSIMFVRLFKACL was 0.643 ± 0.34; that for GNVSDYVVMIGVMVSLPCLI was -0.222 ± 0.56; that for KMKLRHTSCRFSREVTDVY was 0.614 ± 0.32.
In turn, FASVDTRETSSGMGGISKTG had an amyloid nucleation score of -0.742 ± 0.56.
The value for NVSSCDW was -1.22 ± 0.71; that for LTCFVISVGTSSLIIDFWI was -0.647 ± 0.39; that for EKLNFSNLEGFRGFRLKGSR was -0.271 ± 1.4.
The figure for LSSRFAWCIWGET is 0.956 ± 0.73.
Substance DPSPLR came in with an amyloid nucleation score of -0.827 ± 2.4.
The substance ISPRHNYPQILMVLLIKVYF had an amyloid nucleation score of -1.33 ± 1.3.
The value for SNATVGQPRYNVRTGKAGCE was 0.351 ± 0.48; that for LIVVSLGKMKLGYYFKFNVL was 0.286 ± 0.22.
The figure for CHLIL is 0.115 ± 0.34.
VSLMCVALYKQISTRI displayed an amyloid nucleation score of 0.102 ± 0.51.
As for RLCRYLKYRYG, the amyloid nucleation score turned out to be 0.839 ± 1.1.
For the substance LWFNSDLIE, the amyloid nucleation score is -0.369 ± 0.35.
The figure for CLLFTEMFTPLVEVAESM is -0.038 ± 0.48; for LICQLGEPQFNKFHWICSLD it is -0.39 ± 1.7; for LILFWF it is -0.5 ± 1.4.
Substance VYSYYLLLGLW yielded an amyloid nucleation score of 3.66 ± 0.084.
The entry for NFKVQREKGF is “inactive”; for AATGRTVCESREWGKVLAVC it is -0.459 ± 0.38; for GFGSMLVEVTLYSAVAVAAR it is 0.852 ± 0.52.
The figure for VNDLSCIGVGGDAKDNREGN is 1.34 ± 0.48; for RFFPLVLGSLKYM it is 0.827 ± 0.7.
The figure for VCVQILAASTWM is 0.844 ± 0.42; for TQIAESYLVQANNSAEATAA it is -0.32 ± 1.4; for LIKYFNINYNGCSAVPWGSP it is 5.981 ± 0.056.
On to SELFWMVGMGSLSSRYNSPF, for which the amyloid nucleation score turned out to be 2.37 ± 0.087.
For the substance IKHLKNMGFCVRESLYSDRF, the amyloid nucleation score was -0.042 ± 0.59.
GRGRKVYLVDLGSGL returned an amyloid nucleation score of -0.285 ± 0.53.
As for IMPSCKLLAAHVADYVFLMR, the amyloid nucleation score turned out to be 0.863 ± 0.84.
In the case of WSCLSSLRDLGNGGYMM, the amyloid nucleation score turned out to be 0.05 ± 0.62.
The value for HMLGKASGVLFNQRAVTGG was 0.696 ± 0.79; that for TDSCYHCNLYMYHSS was 0.723 ± 0.9; that for GLWHAC was “inactive”.
In the case of LREVGQNLVGMSV, the amyloid nucleation score result is “inactive”.
CFFDGICLDQERYVMNFRAF registered an amyloid nucleation score of 0.104 ± 0.51.
The figure for WNRFRIMQLDITG is 0.103 ± 0.22.
The entry for SEEGMCSSMGVD is “inactive”; for MLRTAMKCWSTSMGDCLEAF it is 0.619 ± 0.48.
The value for TTYRCNVKYQYFMFNDIEFF was 3.54 ± 0.21; that for NNCAFYSLRWRKLWLGGMHV was 8.364 ± 0.056.
NVGSLVHAAW came in with an amyloid nucleation score of -0.613 ± 1.3.
Take VSGAKLAFN: the amyloid nucleation score is -0.46 ± 1.6.
The figure for VSIFPFLTCLVVNLMLGGPV is 4.26 ± 0.11; for YWRKLQYRMAGN it is 0.265 ± 0.64.
The figure for QQGPFVCWIQR is -0.583 ± 1.1; for ASLAMISRMYSSYLDGMVFS it is -0.412 ± 0.91.
YDVLEDSHELMMCFCVRGHW: the amyloid nucleation score was -0.155 ± 1.
Regarding VARTW, the amyloid nucleation score amounted to 0.602 ± 0.57.
As to FYASQRSTPHAVFLCNALKV, the amyloid nucleation score amounted to 0.304 ± 0.52.
For WNTMWRHLGIYFKY, the amyloid nucleation score was found to be 0.249 ± 0.38.
Turning to LCALG, the amyloid nucleation score is -0.434 ± 1.2.
The value for RQVPPISGAISWGDSPSNGG was 0.18 ± 1.2; that for NVNCNRYSWMGDHSCEGRQP was -0.128 ± 0.57; that for AHIISIKYLGSIFNKRRRFA was 0.874 ± 0.66.
As for FSWTYVYYNN, the amyloid nucleation score was determined as 0.433 ± 0.89.
The figure for GDDVRRPVVSVHNSRGYSFG is -0.235 ± 0.32.
In the case of KCRVHSSN, the amyloid nucleation score was -1.08 ± 1.5.
Turning to ARFMLAWEVNCQG, the amyloid nucleation score turned out to be 1.39 ± 0.22.
As for CVVGLISGSPPIRSVFKCNR, the amyloid nucleation score was found to be 0.156 ± 0.98.
The figure for ATLEGVCNINHPSCCASLLD is 0.002 ± 0.61; for RVMVSGNAPSFVLNGGVSVR it is 0.874 ± 0.62.
Substance FSMVAPTVILLKYYN displayed an amyloid nucleation score of -0.111 ± 0.21.
The value for AEYNVGLLSCSNDSLWDQWS was “inactive”; that for RCLIDCD was 0.157 ± 0.52.
The value for TCHLLPSICKSLWNHDNHGL was “inactive”.
The figure for DCYSRNVDLYGCGDDGDILL is -0.031 ± 0.25; for SCRTLANITLCPRSIQF it is 0.055 ± 0.65.
Substance NGNEYMVHRHADKWNTGQYR registered an amyloid nucleation score of 5.83 ± 0.084.
Turning to TEGTYDNSSCHSDALGECLW, the amyloid nucleation score worked out at 0.281 ± 0.33.
The figure for RIYTYSNCVGLKLAFTFAYR is 0.642 ± 0.36; for SYRGVRIGSGGLMYRGANSF it is “inactive”.
The substance ESDPGCPVAVIKGPCT returned an amyloid nucleation score of 0.225 ± 0.8.
Take FQVFYFGCGRHVMVSSYRWV: the amyloid nucleation score is -0.363 ± 0.54.
Substance CFFILW gave an amyloid nucleation score of -0.066 ± 0.55.
In turn, RDNCSLNVYFK came in with an amyloid nucleation score of 2.9 ± 0.14.
On to MDQFDLGSYSCASFQDTPAL, for which the amyloid nucleation score is 1.39 ± 0.18.
The figure for GLLIGDT is 0.437 ± 0.48; for GSLPIRNTFTWGEL it is “inactive”; for VGVHRHSSWWEFAYCASRQ it is -0.537 ± 0.71.
The value for RYLYVPALPFNFLCL was 1.63 ± 0.1; that for SFSRFVVMMKGIRAGKSSHT was 0.156 ± 0.72; that for NSIVWSMC was 0.409 ± 0.42.
The figure for SGMSGCPKCGSWGSNKWYLW is -0.004 ± 0.44; for RFWAACSFTDGR it is 1.71 ± 0.13; for MWTNWDVLPELDGTPRALLW it is -0.501 ± 0.99.
As for TTVLRGLKTP, the amyloid nucleation score is -0.825 ± 1.5.
